Reference: paper PMC4550699

How the values were obtained:
[1] = target: RFP_PCNA1 (Arabidopsis thaliana) (UniProt Q9M7Q7); assay: FRET or BRET; FLIM-FRET in nuclei of transiently transformed N. benthamiana leaf cells; donor GFP fusion, acceptor RFP fusion; E = (1 - tauDA/tauD) x 100%; FRET efficiency of free GFP/RFP (1.19%) used as threshold
[2] = target: RFP_PCNA2 (Arabidopsis thaliana) (UniProt Q9ZW35); assay: as above
Chain of UniProt Q9ZW35 (Q9ZW35 whole entry): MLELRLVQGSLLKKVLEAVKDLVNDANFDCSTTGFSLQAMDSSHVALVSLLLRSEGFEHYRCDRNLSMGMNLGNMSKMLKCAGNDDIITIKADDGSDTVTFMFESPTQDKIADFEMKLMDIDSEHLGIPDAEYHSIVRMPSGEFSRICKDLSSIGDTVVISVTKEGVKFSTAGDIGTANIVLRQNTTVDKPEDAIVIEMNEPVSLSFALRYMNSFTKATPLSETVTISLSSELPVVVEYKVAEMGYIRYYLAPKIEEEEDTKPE

Chain of UniProt Q9M7Q7 (Q9M7Q7 whole entry, the tested form may be a part): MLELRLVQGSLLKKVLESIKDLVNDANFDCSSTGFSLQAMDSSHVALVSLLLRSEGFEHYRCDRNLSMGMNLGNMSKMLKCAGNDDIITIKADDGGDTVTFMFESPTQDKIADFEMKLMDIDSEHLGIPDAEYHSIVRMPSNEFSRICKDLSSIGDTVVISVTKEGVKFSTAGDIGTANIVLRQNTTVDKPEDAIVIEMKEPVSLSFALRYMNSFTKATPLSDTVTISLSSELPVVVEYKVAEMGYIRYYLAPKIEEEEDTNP

Substance | FRET efficiency [1] [%] | FRET efficiency [2] [%]
CycD4;1_GFP (from UniProt Q8LGA1 1-308) (natural protein) | 3.95 | 1.98
CycD4;2_GFP (from UniProt Q0WQN9 1-298) (natural protein) | 3.56 | 5.14
CycD6;1_GFP (from UniProt Q9ZR04 1-302) (natural protein) | 4.1 | 2.87
CycD7;1_GFP (from UniProt Q9LZM0 1-341) (natural protein) | 6.25 | 3.75
